Measured values reported in patent US20140093514A1 (UNIVERSITY OF ZURICH, published 2014).

How the values were obtained:
recombinant MAGEA10 = target: T1, recombinant MAGEA10 (UniProt P43363 1-369, limits assumed); assay: ELISA on coated recombinant MAGEA proteins, serial dilutions of antibody (concentrations not printed on the sheet)
T1 construct: also called CT1.10
Procedure: (§1) Recombinantly expressed MAGEA3, MAGEA1, MAGEA4, MAGEA10 were coated on ELISA plates and binding of MAGEA3 antibodies 21B4, 94G11, 2G4, 9A5 and 54B4 to these proteins was tested. The results are depicted in FIG. 3B).

recombinant MAGEA4 = target: T2, recombinant MAGEA4 (UniProt P43358 1-317, limits assumed); assay: as above
T2 construct: also called CT1.4
T2 sequence (looked up): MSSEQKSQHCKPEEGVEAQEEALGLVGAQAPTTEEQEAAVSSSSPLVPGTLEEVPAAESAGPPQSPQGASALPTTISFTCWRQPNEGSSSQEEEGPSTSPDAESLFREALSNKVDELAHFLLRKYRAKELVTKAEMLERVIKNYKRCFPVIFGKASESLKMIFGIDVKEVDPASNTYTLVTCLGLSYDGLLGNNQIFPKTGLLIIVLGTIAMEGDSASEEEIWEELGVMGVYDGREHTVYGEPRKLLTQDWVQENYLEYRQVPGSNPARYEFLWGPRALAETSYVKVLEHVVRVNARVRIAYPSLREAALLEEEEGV
Procedure: as §1

recombinant MAGEA1 = target: T3, recombinant MAGEA1 (UniProt P43355 1-309, limits assumed); assay: as above
T3 construct: also called CT1.1
T3 sequence (looked up): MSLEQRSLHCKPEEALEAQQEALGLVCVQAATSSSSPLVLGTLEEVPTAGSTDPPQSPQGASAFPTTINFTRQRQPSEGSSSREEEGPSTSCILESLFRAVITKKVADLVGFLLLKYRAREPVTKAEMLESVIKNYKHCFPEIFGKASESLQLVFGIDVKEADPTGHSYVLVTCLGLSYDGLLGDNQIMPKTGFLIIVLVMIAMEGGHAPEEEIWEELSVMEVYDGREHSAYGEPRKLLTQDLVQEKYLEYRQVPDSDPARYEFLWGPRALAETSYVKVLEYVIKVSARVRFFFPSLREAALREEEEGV
Procedure: as §1

[1] = target: T4, recombinant MAGEA3 protein (human, UniProt P43357 1-314); assay: ELISA, recombinant MAGEA3 coated to plastic, serial dilutions of antibody, OD 450 nm
T4 construct: In Experiment 4C MAGEA3 was also expressed in transiently transfected HEK293T cells (fixed and permeabilized); also called His-tagged MAGEA3; CT1.3
Procedure: FIG. 4 EC50 determination of recombinant human monoclonal antibodies to MAGEA3. MAGEA3-ELISA was carried out using recombinant MAGEA3 coated to plastic and serial dilutions of the human monoclonal antibodies 21B4, 54B4, 94G11, 9A5, 31H10, 43B10, 2G4, 20C10, 26C9 and 4D6 (A-J). EC50 values are indicated in each figure.
The EC₅₀, the concentration at which half-maximal binding of the antibody to its antigen is observed was determined in MAGEA3 ELISA using serial dilutions of the human monoclonal antibodies 21B4, 54B4, 94G11, 9A5, 31H10, 43B10, 2G4, 20C10, 26C9 and 4D6. EC50 values were determined mathematically by derivation of the best-fit line using GraphPad software.

MAGEA3 peptide No 8 = target: T5, MAGEA3 peptide No 8; assay: ELISA on plates coated with overlapping 20mer MAGEA3 peptides; antibody at 1 µg/ml; HRP goat anti-human IgG Fc-gamma
T5 construct: member of the group m18; also called 20mer peptide, amino acids 71-90 of MAGEA3
T5 peptide: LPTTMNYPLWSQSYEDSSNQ
Procedure: (§2) 20mer peptides spanning the entire MAGEA3 protein with 10 aa overlaps shared by each adjacent peptide (Peptides&Elephants, Nuthetal, Germany) were used to coat Maxisorp ELISA plates (Nunc, Rochester, N.Y.). As control a 20mer peptide representing amino acids 40-21 from the NY-ESO-1 protein was used (rev). The numbering of amino acids of MAGEA3 is based on SEQ ID No.: 101.
(§3) Human recombinant antibody was used at a concentration of 1 μg/ml with the exception of antibody 9A5 which was used at […]. Bound human antibody was detected using horseradish peroxidase-conjugated goat anti-human IgG Fc-gamma specific antibodies (Jackson ImmunoResearch, Europe Ltd., Cambridgeshire, UK).

MAGEA3 peptide No 24 = target: T6, MAGEA3 peptide No 24; assay: as above
T6 construct: member of the group m18; also called 20mer peptide, amino acids 231-250 of MAGEA3
T6 peptide: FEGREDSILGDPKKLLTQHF
Procedure: as §2, §3

MAGEA3 peptide No 7 = target: T7, MAGEA3 peptide No 7; assay: as above
T7 construct: member of the group m18; also called 20mer peptide, amino acids 61-80 of MAGEA3
T7 peptide: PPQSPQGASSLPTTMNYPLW
Procedure: as §2, §3

MAGEA6 = target: T8, MAGEA6 (UniProt P43360 1-314, limits assumed); assay: flow cytometry on fixed, permeabilized HEK293T cells transiently transfected with MAGEA6; PE-labeled anti-human antibody
T8 construct: whole, on cells; Intracellular antigen: the transfected cells were fixed and permeabilized before staining; also called CT1.6
Procedure: HEK293T cells transiently transfected with MAGEA3 or MAGE A6 were fixed and permeabilized and incubated with human-derived antibodies. Binding of human-derived antibodies to the cells was detected by flow cytometry using PE-labeled anti-human antibodies. […] Filled histograms show binding of 21B4, 31H10, 94G11 and 54B4 to transiently transfected HEK 293 cells. Only a proportion of the cells was transfected resulting in a population expressing the transgene and in a population not expressing the transgene. […] The results are depicted in FIG. 3C).

T8 sequence (P43360 whole entry): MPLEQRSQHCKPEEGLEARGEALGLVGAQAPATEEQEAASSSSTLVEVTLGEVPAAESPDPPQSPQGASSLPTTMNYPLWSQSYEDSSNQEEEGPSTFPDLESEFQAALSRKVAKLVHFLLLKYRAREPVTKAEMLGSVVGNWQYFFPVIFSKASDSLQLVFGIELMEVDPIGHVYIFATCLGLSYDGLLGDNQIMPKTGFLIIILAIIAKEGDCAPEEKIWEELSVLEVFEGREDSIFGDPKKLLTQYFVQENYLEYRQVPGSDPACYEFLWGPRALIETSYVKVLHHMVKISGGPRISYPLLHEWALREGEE
T4 sequence (P43357 whole entry): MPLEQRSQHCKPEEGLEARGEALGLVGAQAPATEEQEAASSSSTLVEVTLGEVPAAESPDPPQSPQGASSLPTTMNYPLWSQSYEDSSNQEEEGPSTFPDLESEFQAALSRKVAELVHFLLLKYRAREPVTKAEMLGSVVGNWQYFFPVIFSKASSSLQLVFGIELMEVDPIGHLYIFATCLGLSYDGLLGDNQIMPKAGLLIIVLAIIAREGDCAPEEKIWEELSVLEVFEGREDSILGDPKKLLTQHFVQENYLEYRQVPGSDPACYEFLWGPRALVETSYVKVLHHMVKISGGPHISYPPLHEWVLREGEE
T1 sequence (P43363 whole entry): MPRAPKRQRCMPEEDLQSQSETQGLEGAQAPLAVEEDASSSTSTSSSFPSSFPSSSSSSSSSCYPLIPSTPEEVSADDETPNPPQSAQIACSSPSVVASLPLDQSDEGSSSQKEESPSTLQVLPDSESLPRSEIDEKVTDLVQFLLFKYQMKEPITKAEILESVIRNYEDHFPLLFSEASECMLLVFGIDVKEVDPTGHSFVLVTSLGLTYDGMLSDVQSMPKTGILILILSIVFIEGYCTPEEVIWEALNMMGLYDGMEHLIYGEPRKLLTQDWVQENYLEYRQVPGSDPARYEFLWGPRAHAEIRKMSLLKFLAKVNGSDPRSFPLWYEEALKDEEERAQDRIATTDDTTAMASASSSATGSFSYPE

binding result (recombinant MAGEA10): no binding
binding result (recombinant MAGEA4): no binding
binding result (recombinant MAGEA1): no binding
EC50 [1]: 31.3 pM
binding result (MAGEA3 peptide No 8): binds
binding result (MAGEA3 peptide No 24): binds
binding result (MAGEA3 peptide No 7): binds
binding result (MAGEA6): binds
B1: 21B4 (antibody, V domains shown)
VH: QVQLVESGGGVVQPGRSLRLSCTASGFRFRSHGMHWVRQAPGKGLEWVAVISYDGNNKLYADSVKGRITISRDNSKNTLFLQMNNVRAEDTAVYYCASPYTSDWQYFQYWGQGTLVIVSS
VL: EIVMTQSPATLSVSPGERATFSCRASQNISTTLAWYQQKPGQAPRLLIYDTSTRATGIPARFSGSGSGTEFTLTISSLQSEDLAVYYCQQSNSWPLTFGGGTKVEIK
notes: Patient-derived; also called human-derived recombinant antibody 21B4; human monoclonal antibody 21B4
